Results as given in the RNAGym collection of RNA variant scans (doi:10.1073/pnas.2313332121).
Fewer inactive variants are shown than the library holds.

B1: TPR 5TU (parent)
chain: GGAUCUUCUCGAUCUAACAAAAAAGACAAAUCUGCCACAAAGCUUGAGAGCAUCUUCGGAUGCAGAGGCGGCAGCCUUCGGUGGCGCGAUAGCGCCAACGUUCUCAACUAUGACACGCAAAACGCGUGCUCCGUUGAAUGGAGUUUAUCAUG

Variants of: B1
Test: polymerase ribozyme fitness, log enrichment relative to wild type (log ratio); higher = more active; in vitro selection for triplet polymerase activity
How it was run: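 The heterodimeric triplet polymerase ribozyme's subunits were each mutagenized into PCR-built libraries and transcribed. Every library was selected once, in triplicate, by annealing with a biotinylated primer, the partner subunit and triplets, incubating frozen at −7 °C, gel-excising extended constructs, capturing on streptavidin beads and running RT-PCR. Input and output libraries were Illumina-sequenced, with genotypes kept only at ≥10 input reads and ≥1 read per output. Fitness, from inverse-variance-weighted replicate averages, is the base-2 logarithm of genotype enrichment over wild-type enrichment.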

Variant	polymerase ribozyme fitness (log ratio)
A40C C75G C85A G141U	≤ -4.2
A40C C93A C99U G133C	-3.98
A39U A47G C95U A110G	-3.7
A40C C76U C95A C131G G141U	-1.68
A40C U55A G88A C108G C118U U130A	≤ -4.2
A40C G42U U55A C85A	≤ -4.2
A40U C87A	-3.87
A40U C87U	-0.375
A40U C93U U101G G128U	-4.04
A40C G48A G58A C87U	-2.55
A40G A64G G136A	≤ -4.2
A39U U55G U82C C85U U146C	-2.49
A40G A41U A49U G58C G74U C85A U139G G141C U148C	≤ -4.2
A40U A47C A66C C76U C93A A98G C99G U104C A150U	≤ -4.2
A39U G42C U77C C85A C95G	≤ -4.2
A40G A60G U61C G84A	-3.52
A40C C54A A89U G94U	-2.57
A40C U55A A89C	0.0362
A40C U82G G94A	0.746
A39U C54U U55G C93U C103U	≤ -4.2
A40C C76G U151A	≤ -4.2

Variant	polymerase ribozyme fitness (log ratio)
A39U G58C G74U A91G C123G G133A U146C	≤ -4.2
A40G U56A	-1.21
A40U G48C C69G C85U	-1.48
A39U G74A C85U A91C C125A	≤ -4.2
A40U A106G	0.3
A40C U53G A66G A119G	≤ -4.2
A40G C149A	-3.98
A40U A91G	-3.33
A39U A89G G126U	-3.58
A40C C93A	-1.96
A39U G59C G83U A147U	-2.17
A40G A64C G70A C114U	≤ -4.2
A40C A97C	1.5
A40C A97U	-0.185
A40G A73U A89G C93G U104G A106G U134A	≤ -4.2
A40C G70A	-2.97
A40C A49U U56A C57A G88C U135A A137U	≤ -4.2
A40C C95U	-0.646
A39U A40C G42U G48A A60U U82G C85A U104A U127C	≤ -4.2
A40C A89G A150G	-3.25
A40G G86A C95U C103G C108U C125G	≤ -4.2

Variant	polymerase ribozyme fitness (log ratio)
A39U G92C U127A	≤ -4.2
A40C A89U	0.433
A40C G62U A119U	-0.408
A40U A97U C108U	≤ -4.2
A40C G92A U109C G141U	≤ -4.2
A40C G46A A91G U104G A119G U148G	≤ -4.2
A40C G81A	0.951
A40G C96U	-1.81
A40G U55A C76G G81A G86U C149U	≤ -4.2
A40C A52C G83A	-2.55
A39U U45C C93U	≤ -4.2
A39U C69U C95U C129G	≤ -4.2
A39G U101C	-1.89
A39U A60G A137U	-4.19
A40C A52G C79A C85U C99A A106G A142U G152U	≤ -4.2
A40C A41C G58C A91U G124A C125A	≤ -4.2
A39U G100C U148A	-4.2
A39U A66C G68A C108U A121U U134A G143U	≤ -4.2
A39U A64G G86A A89G U135A	≤ -4.2
A40C A41C A49C A91U	≤ -4.2
A39U G46C G48A G50C U56A G84U	≤ -4.2

Variant	polymerase ribozyme fitness (log ratio)
A40C A98G C131U U134A	-2.13
A40U A52G G58C C75U G141U	-2.07
A40C G83C	0.449
A40G C75G	-4.09
A40U C116A	0.309
A39U C76G G92U C108U	≤ -4.2
A40C A49C U56A A60C G84A G136A	≤ -4.2
A39U C76A G86C G126A C132U U134A	≤ -4.2
A39U A122G U145G	-2.48
A40U A52G C132G	-3.47
A39U C51U U61G A89U	≤ -4.2
A40C U148A	-3.51
A39U A41U U56A G71A	≤ -4.2
A40C A60U	0.0412
A40U A106G C131U	1.54
A40U C51U G83C	-0.981
A40C G48C U56G	-1.94
A40C A47C C93A A137G U146C	-4.13
A40U A122C	0.0565
A40U A91C A120C C129A U151A	≤ -4.2
A40G C87U	-1.53
